We go through 5 molecules from paper PMC7062188, “The crystal structure of human forkhead box N1 in complex with DNA reveals the structural basis for forkhead box family specificity”.

In data set [1] the target is T1, FOXN1 1-614 (human, UniProt O15353 1-614).
T1 sequence: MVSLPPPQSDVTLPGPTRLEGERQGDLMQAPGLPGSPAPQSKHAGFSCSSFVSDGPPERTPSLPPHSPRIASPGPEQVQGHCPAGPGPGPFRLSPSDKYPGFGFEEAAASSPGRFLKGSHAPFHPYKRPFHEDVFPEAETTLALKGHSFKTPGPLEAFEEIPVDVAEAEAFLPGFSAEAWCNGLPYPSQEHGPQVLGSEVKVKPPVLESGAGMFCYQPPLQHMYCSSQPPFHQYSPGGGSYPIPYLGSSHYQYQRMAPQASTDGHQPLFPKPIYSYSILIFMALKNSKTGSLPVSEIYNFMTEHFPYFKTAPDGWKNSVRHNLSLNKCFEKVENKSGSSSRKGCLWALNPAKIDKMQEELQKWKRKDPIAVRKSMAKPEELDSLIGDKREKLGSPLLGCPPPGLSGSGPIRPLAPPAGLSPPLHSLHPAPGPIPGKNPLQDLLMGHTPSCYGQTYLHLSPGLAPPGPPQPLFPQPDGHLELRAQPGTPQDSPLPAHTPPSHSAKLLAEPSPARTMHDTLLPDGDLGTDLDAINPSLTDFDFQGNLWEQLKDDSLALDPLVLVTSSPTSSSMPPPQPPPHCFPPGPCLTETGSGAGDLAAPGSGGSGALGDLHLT
Description: fluorescence polarization; EMSA: 50 mM Tris-HCl pH 7.5, 25 mM NaCl, 0.5 mM EDTA, 0.1% Tween 20, 2 mM DTT, 5% glycerol, 30 min room temperature; FP: 10 mM HEPES pH 7.5, 50 mM NaCl, 1 mM TCEP, 10 nM probe. The following applies: protein: recombinant; tags: His tag (pNIC28-Bsa4), cleaved with TEV; label: 3' FITC on strand 1; blunt.

Data set [2] has as its target T2, FOXN1 forkhead domain (human, UniProt O15353 270-366).
T2 sequence: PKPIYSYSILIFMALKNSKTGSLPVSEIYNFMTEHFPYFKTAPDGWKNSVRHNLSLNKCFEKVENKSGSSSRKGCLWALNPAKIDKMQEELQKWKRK
Description: EMSA; no significant binding over the concentration range tested; EMSA: 50 mM Tris-HCl pH 7.5, 25 mM NaCl, 0.5 mM EDTA, 0.1% Tween 20, 2 mM DTT, 5% glycerol, 30 min room temperature; FP: 10 mM HEPES pH 7.5, 50 mM NaCl, 1 mM TCEP, 10 nM probe. The following applies: protein: recombinant; tags: His tag (pNIC28-Bsa4), cleaved with TEV; label: 32P on forward strand (5', T4 PNK); blunt.

The target of data set [3] is T1, FOXN1 1-614. Description: EMSA; apparent Kd; multiple shifted species; EMSA: 50 mM Tris-HCl pH 7.5, 25 mM NaCl, 0.5 mM EDTA, 0.1% Tween 20, 2 mM DTT, 5% glycerol, 30 min room temperature; FP: 10 mM HEPES pH 7.5, 50 mM NaCl, 1 mM TCEP, 10 nM probe. The following applies: protein: recombinant; tags: His tag (pNIC28-Bsa4), cleaved with TEV; label: 32P on forward strand (5', T4 PNK); blunt.

For data set [4], the target named is T2, FOXN1 forkhead domain. Kind of data set: X-ray crystallography; 1.6 A structure; crystals at pH 4.5; EMSA: 50 mM Tris-HCl pH 7.5, 25 mM NaCl, 0.5 mM EDTA, 0.1% Tween 20, 2 mM DTT, 5% glycerol, 30 min room temperature; FP: 10 mM HEPES pH 7.5, 50 mM NaCl, 1 mM TCEP, 10 nM probe. The following applies: protein: recombinant; tags: His tag (pNIC28-Bsa4), cleaved with TEV; blunt. A general note: A gel shift assay detects complexes by their altered migration in electrophoresis.

Data set [5] concerns the target T1, FOXN1 1-614. Kind of data set: EMSA; apparent Kd; EMSA: 50 mM Tris-HCl pH 7.5, 25 mM NaCl, 0.5 mM EDTA, 0.1% Tween 20, 2 mM DTT, 5% glycerol, 30 min room temperature; FP: 10 mM HEPES pH 7.5, 50 mM NaCl, 1 mM TCEP, 10 nM probe. To be noted: protein: recombinant; tags: His tag (pNIC28-Bsa4), cleaved with TEV; label: 32P on forward strand (5', T4 PNK); blunt.

B1: tandem FKH FP probe (dsDNA)
DNA 1: GCAGCATAAACAACAGAGCGATAAACCAGGG
DNA 2: CCCTGGTTTATCGCTCTGTTGTTTATGCTGC
As for B1, the Kd with FOXN1 1-614 [1] was determined as 0.085 ± 0.011 µM.

B2: PSMA7 tandem FHL EMSA probe (dsDNA)
DNA 1: GCAGCAGACGCAACAGAGCGAGACGCCAGGG
DNA 2: CCCTGGCGTCTCGCTCTGTTGCGTCTGCTGC
In the case of B2, the binding result with FOXN1 forkhead domain [2] is “no binding”. The Kd in the data set with FOXN1 1-614 [3] was 0.082 ± 0.008 µM.

B3: tandem FHL FP probe (dsDNA)
DNA 1: GCAGCAGACGCAACAGAGCGAGACGCCAGGG
DNA 2: CCCTGGCGTCTCGCTCTGTTGCGTCTGCTGC
Take B3: the Kd with FOXN1 1-614 [1] came out at 0.038 ± 0.0033 µM.

B4: Psmb11 FHL 13-mer (dsDNA)
DNA 1: TGAAGACGCCACC
DNA 2: GGTGGCGTCTTCA
As for B4, in the data set with FOXN1 forkhead domain [4], the binding result was “binds”.

B5: tandem FKH EMSA probe (dsDNA)
DNA 1: AGCATAAACAACAGAGCGATAAACCAGG
DNA 2: CCTGGTTTATCGCTCTGTTGTTTATGCT
Regarding B5, the Kd with FOXN1 1-614 [5] is 0.205 ± 0.021 µM.
